Experiments:
[1] = molecular target: RSV F protein of subtype B (18537) on recombinant mKate-RSV virus (Respiratory syncytial virus subtype B …, UniProt P13843 26-574); experiment: cell-based or functional assay
[2] = molecular target: RSV F protein of subtype A (strain A2) on recombinant mKate-RSV virus (Respiratory syncytial virus subtype A …, UniProt P03420 26-574); experiment: cell-based or functional assay
[3] = molecular target: T1, RSV F subtype B, furin-cleaved ectodomain stabilized in the prefusion conformation (DS-Cav1) (Respiratory syncytial virus subtype B); experiment: BLI, IgG on AHQ sensor, 100 nM antigen
T1 construct: extracellular domain; Trimeric soluble antigen; also called Prefusion subtype B

[4] = molecular target: T2, RSV F subtype A, furin-cleaved ectodomain stabilized in the prefusion conformation (DS-Cav1) (Respiratory syncytial virus subtype A, UniProt P03420 26-524); experiment: BLI, IgG on AHQ sensor, 100 nM antigen
T2 construct: extracellular domain; Trimeric soluble antigen; also called Prefusion subtype A

Binder | Neut IC50 (µg/ml) subtype B [1] | Neut IC50 (µg/ml) subtype A [2] | Kd [3] | Kd [4]
ADI-18900 (antibody, V domains shown, full-length IgG from yeast) VH: EVQLLESGGALVEPGGSLRLSCAASGFSFNTYSMNWVRQGPGKGLEWVATISTSTAGSYYADSVRGRFTISRDNSKNTLYLQMNSLRVEDTAVYYCARDQEVELIDDAFDFWGRGTMVTVSS VL: DIVMTQTHSSLSASVGDRVTITCRASQSISIWVAWYQQKPGKAPNLLIYKASSLQSGVPSRFSGSGSGTEFTLTISSLQPDDSATYYCQQYYTYYSFGQGTKLEIK | 0.059 µg/mL | 0.035 µg/mL | 0.331 nM | 1.19 nM
ADI-18919 (antibody, V domains shown, full-length IgG from yeast) VH: QVQLQESGPGLEKPSQTLSLTCTVSRGSIRIGGYFWSWIRQHPGKGLEWLGYISNDGATDYNPSLRSRLAISADTSKNQFSLTLRSVTAADTAIYYCARTSYAGRMLDRWGQGILVTVSS VL: DIRVTQSPVSLPVTPGEPASISCRSSQSLLHSNGNNYLDWYLQKPGQSPQLLIYMGSYRASGVPDRFSGSGSGTDFTLKISRVEAEDVGVYYCMQGLQIPWTFGQGTKLEIK | 0.261 µg/mL | 0.123 µg/mL | 0.163 nM | 0.202 nM
ADI-18891 (antibody, V domains shown, full-length IgG from yeast; also called Antibody Number 246; Ab # 246) VH: QVQLQESGAEVKKPGSSVKVSCKASGGAFSSYAISWVRQAPGQGLEWLGGITHLFGTVSYAPKFQGRVTITADASTGTLYMVLNSLKPEDTAIYYCARDAYEVWTGSYLPPFDYWGQGTLVTVSS VL: EIVLTQSPGTLSLSPGERATLSCRASQTVTSNYLAWYQQKPGQAPRLLIYDALTRATGIPDRFSGSGSGTDFTLTISRLEPEDFALYYCQQYGSSFLTFGGGTKLEIK | 0.026 µg/mL | 0.012 µg/mL | 0.513 nM | 0.534 nM
ADI-18913 (antibody, V domains shown, full-length IgG from yeast) VH: QVQLVQSGPEVKKPGESLTISCKGSGYDFSNNWIGWVRQMPGKGLEWMGIIYPGDSDTRYSPSFQGQVTLSVDKSISTAYLQWRSLKASDSGIYYCARQIGGLVCSSESCYFYGMDVWGQGTTVTVSS VL: DIQLTQSPSSLSASVGGRVTITCRASQSISNYLNWYQHKPGKAPELLIYGASSLQSGVPSRFSGSGSGTDFTLTISSLQPEDFATYYCQQSDTTPFTFGQGTKVDIK | < 0.01 µg/mL | < 0.01 µg/mL | 0.471 nM | 0.568 nM
ADI-18916 (antibody, V domains shown, full-length IgG from yeast; also called Antibody Number 270; Ab # 270) VH: QVQLVQSGPEVKKPGESLTISCKGSGYDFSNNWIGWVRQMPGKGLEWMGIIYPGDSDTRYSPSFQGQVTLSVDKSISTAYLQWRSLKASDSGIYYCARQIGGLVCSSESCYFYGMDVWGQGTTVTVSS VL: DIRVTQSPSSLSASVGGRVTITCRASQSISNYLNWYQHKPGKAPELLIYGASSLQSGVPSRFSGSGSGTDFTLTISSLQPEDFATYYCQQSDTTPFTFGQGTKLEIK | < 0.01 µg/mL | < 0.01 µg/mL | 0.465 nM | 0.585 nM
ADI-18892 (antibody, V domains shown, full-length IgG from yeast) VH: QVQLVQSGAEVKEPGASVRVSCKASGYTFTSYGISWVRQAPGQGLEWMGWISAYNGNTNYAQKFQGRVTVTTDTSTSAAYMELRSLRSDDTAIYYCARDSFSLTGAGFPDYWGQGTLVTVSS VL: EIVMTQSPLSLPVTLGQPASISCRSSQSLVYSDGNTYLNWFQQRPGQSPRRLIYKVSNRDSGVPDRFSGSGSDTDFTLKISRVEAEDVGVYYCMQATQWPRTFGQGTKVEIK | 0.117 µg/mL | 0.018 µg/mL | 0.253 nM | 0.217 nM
ADI-18877 (antibody, V domains shown, full-length IgG from yeast; also called Antibody Number 234; Ab # 234) VH: QVQLVQSGTEVKKPGASVKVSCKAAGYTFSNYGVSWVRQAPGQGLEWMGWISAYNGNTKFAQKVQGRLTMTTDTSTSTAYMELRNLRSDDTAVYYCARESGATAAAMFDYWGQGTLVTVSS VL: ETTLTQSPLSLPVTLGQPASISCRSSQSLEYSDGNIYLSWFQQRPGQSPRRLIYKVSHRDSGVPDRFSGSGSGTDFTLKIARVEAEDVAVYYCMQAIHWPRTFGQGTKVDIK | 0.13 µg/mL | 0.41 µg/mL | 0.383 nM | 0.303 nM
ADI-18898 (antibody, V domains shown, full-length IgG from yeast) VH: QVQLVQSGTEVKKPGASVKVSCKAAGYTFSNYGVSWVRQAPGQGLEWMGWISAYNGNTKFAQKVQGRLTMTTDTSTSTAYMELRNLRSDDTAVYYCARESGATAAAMFDYWGQGTLVTVSS VL: EIVLTQSPLSLPVTLGQPASISCRSSQSLEYSDGNIYLSWFQQRPGQSPRRLIYKVSHRDSGVPDRFSGSGSGTDFTLKIARVEAEDVAVYYCMQAIHWPRTFGQGTKVEIK | 0.097 µg/mL | 0.03 µg/mL | 0.325 nM | 0.305 nM
ADI-18912 (antibody, V domains shown, full-length IgG from yeast) VH: EVQLVESGGGLVKPGGALRLSCAASGFSFRSYSMNWVRQAPGKGLEWVSSISSSSNYINYADSVKGRFSISRDNAKNSLYLQMNSLRAEDTAVYYCARDLLPVERGPAFDIWGQGTMVTVSS VL: SYELTQPPSVSGAPGQRVTISCTGSSSNIGAGYDVHWFQQLPGAAPKLLIYANSNRPSGVPDRFSGSKSGTSASLAITGLQAEDEADYYCQSYDSRLGGSVFGGGTKVTVL | 0.061 µg/mL | 0.024 µg/mL | 0.286 nM | 0.258 nM
ADI-18915 (antibody, V domains shown, full-length IgG from yeast; also called Antibody Number 269; Ab # 269) VH: QVQLVQSGGGLVKPGGSLRLSCAASGFTFSKAWMNWVRQAPGKGLEWVGRIRSKTDGGTADYAAPVKGRFTMSRDDSKNTLYLQMNSLKTEDTAVYYCATDSRRLYDSRGFYSSAFDVWGQGTTVTVSS VL: QSVLTQPPSVSGAPGQRVTISCTGSSSNIGAGYDVHWYQHLPGTAPKVLIYGNNNRPSGVPDRFSGSKSGTSASLAITGLQAEDEADYYCQSYDDSLTGWVFGGGTKVTVL | 0.021 µg/mL | 1.2 µg/mL | 0.421 nM | 28.1 nM
ADI-18902 (antibody, V domains shown, full-length IgG from yeast) VH: QVQLQESGPGLVKPSETLSLTCTVSGGSISGYYWSWIRQPPGRGLEWIGFIYYSGSTSYDSSLKSRVTISVDTSKNQFSLNLSSVTAADTAVYYCARSTWDYGDHFPFDYWGQGTLVTVSS VL: SYELTQPPSVSVAPGKTARITCGGNNIGIKDVHWYQLRPGQAPVLVISYDSDRPSGIPERFSGSNSGNTATLTISRVEAGDEADYFCQVWDSSPDHPYVFGTGTKLTVL | 0.15 µg/mL | 0.024 µg/mL | 0.101 nM | 0.107 nM
ADI-18893 (antibody, V domains shown, full-length IgG from yeast; also called Antibody Number 248; Ab # 248) VH: EVQLLESGGGLVKPGGSLRLSCVASGFTFSSYNINWVRQAPGKGLEWVSSISGGSNYIDYADSVKGRFTISRDNAKNSLYLQMNNLRAEDTAVYYCARLGYGGNPELDYWGQGTLVTVSS VL: QSVLTQPPSVSGAPGQRVTISCTGSSSNIGAGYDVHWYQQRPGTAPKLLIYANNNRPSGVPDRFSGSKSGTSASLAITGLQAEDEADYYCQSYDLSLSSSRVFGGGTKLTVL | 0.182 µg/mL | 0.123 µg/mL | 0.278 nM | 0.245 nM
ADI-18920 (antibody, V domains shown, full-length IgG from yeast; also called Antibody Number 274; Ab # 274) VH: EVQLLESGGGVVQPGRSLRLSCAASGFTFSSYAMHWVRQTPDKGLEWVALISDDGRNEYYADSVQGRFTISRDKSKNTLHLEMNSLRAEDTAVYYCAKVRNEAWELLGNDDALDVWGQGTMVTVSS VL: QSVLTQPPSVSAAPGQKVTISCSGTSFNIGSNYVSWYQLLPGTAPKLLIFDNYKRPSGIPDRFSGSWSGTSATLAISGLQTGDEAEYFCGTWDTSLRAGVFGGGTKLTVL | 0.049 µg/mL | 0.041 µg/mL | 0.0977 nM | 0.678 nM
ADI-18908 (antibody, V domains shown, full-length IgG from yeast) VH: QVQLVESGGGLVKPGGSLRLSCAASGFTFSSFGMHWVRQAPGQGLEWVASITGGSSYINYADSVKGRFTISRDNAKKSLSLQMKNLRAEDTAEYYCVRGVLPGGTGGGWFDSWGQGTLVTVSS VL: QSVLTQPPSMSGAPGQRVTISCTGTSSNIGAGYDVQWYQQFPGTAPKLLISGNNNRPSGVPDRFSGSKSGASASLAITGLQAEDEADYYCQSYDYSLNWVFGGGTKLTVL | 0.095 µg/mL | 0.018 µg/mL | 0.352 nM | 0.302 nM
ADI-18917 (antibody, V domains shown, full-length IgG from yeast; also called Antibody Number 271; Ab # 271) VH: EVQLVESGGGLVKPGGSLRLSCAASGFTFSSFGMHWVRQAPGQGLEWVASITGGSSYINYADSVKGRFTISRDNAKKSLSLQMKNLRAEDTAEYYCVRGVLPGDTGGGWFDSWGQGTLVTVSS VL: QSVLTQPPSMSGAPGQRVTISCTGTSSNIGAGYDVQWYQQFPGTAPKLLISGNNNRPSGVPDRFSGSKSGASASLAITGLQAEDEADYYCQSYDYSLNWVFGGGTKLTVL | 0.091 µg/mL | 0.024 µg/mL | 0.332 nM | 0.356 nM

— patent US20200223906A1 (Adimab, published 2020)
